Test results taken from patent publication US20250352667A1.
Blank lines part the entries; values can stand above or below the binder they belong to.

What was measured:
[1] = molecular target: KEAP1 (wild-type full-length), His-tagged (human) (UniProt Q14145); assay: AlphaScreen; FLAG-NRF2 wt isoform 1 76.8 nM, His-KEAP1 150 nM; Rep 2; positive control for Q75R
[2] = molecular target: KEAP1 (wild-type full-length), His-tagged (human) (UniProt Q14145); assay: AlphaScreen; 153.6 nM FLAG-NRF2, 150 nM His-KEAP1; signal against NRF2 only; control for I86V
[3] = molecular target: KEAP1 (wild-type full-length), His-tagged (human) (UniProt Q14145); assay: AlphaScreen; FLAG-NRF2 wt isoform 1 19.2 nM, His-KEAP1 150 nM; Rep 2; positive control for I86V
[4] = molecular target: KEAP1 (wild-type full-length), His-tagged (human) (UniProt Q14145); assay: AlphaScreen; FLAG-NRF2 wt isoform 1 19.2 nM, His-KEAP1 150 nM; Rep 2; positive control for Q75R
[5] = molecular target: KEAP1 (wild-type full-length), His-tagged (human) (UniProt Q14145); assay: AlphaScreen; 2.4 nM FLAG-NRF2, 150 nM His-KEAP1; signal against NRF2 only; control for I86V
[6] = molecular target: KEAP1 (wild-type full-length), His-tagged (human) (UniProt Q14145); assay: AlphaScreen; 614.4 nM FLAG-NRF2, 150 nM His-KEAP1; Rep 1; control for I86V
[7] = molecular target: KEAP1 (wild-type full-length), His-tagged (human) (UniProt Q14145); assay: AlphaScreen; FLAG-NRF2 wt isoform 1 2.4 nM, His-KEAP1 150 nM; Rep 2; positive control for Q75R
[8] = molecular target: KEAP1 (wild-type full-length), His-tagged (human) (UniProt Q14145); assay: AlphaScreen; 9.6 nM FLAG-NRF2, 150 nM His-KEAP1; Rep 2; control for I86V
[9] = molecular target: KEAP1 (wild-type full-length), His-tagged (human) (UniProt Q14145); assay: AlphaScreen; FLAG-NRF2 wt isoform 1 4.8 nM, His-KEAP1 150 nM; Rep 1; positive control for Q75R
[10] = molecular target: KEAP1 (wild-type full-length), His-tagged (human) (UniProt Q14145); assay: AlphaScreen; NRF2 wt isoform 1 38.4 nM, KEAP1 150 nM; signal against NRF2-only control; control for Q75R
[11] = molecular target: KEAP1 (wild-type full-length), His-tagged (human) (UniProt Q14145); assay: AlphaScreen; 614.4 nM FLAG-NRF2, 150 nM His-KEAP1; signal against NRF2 only; control for I28V
[12] = molecular target: KEAP1 (wild-type full-length), His-tagged (human) (UniProt Q14145); assay: AlphaScreen; 307.2 nM FLAG-NRF2, 150 nM His-KEAP1; Rep 1; control for I86V
[13] = molecular target: KEAP1 (wild-type full-length), His-tagged (human) (UniProt Q14145); assay: AlphaScreen; FLAG-NRF2 Q75R 9.6 nM, His-KEAP1 150 nM; Rep 1
[14] = molecular target: KEAP1 (wild-type full-length), His-tagged (human) (UniProt Q14145); assay: AlphaScreen; NRF2 Q75R 19.2 nM, KEAP1 150 nM; signal against NRF2-only control
[15] = molecular target: KEAP1 (wild-type full-length), His-tagged (human) (UniProt Q14145); assay: AlphaScreen; FLAG-NRF2 Q75R 38.4 nM, His-KEAP1 150 nM; Repeat 2
[16] = molecular target: KEAP1 (wild-type full-length), His-tagged (human) (UniProt Q14145); assay: AlphaScreen; NRF2 Q75R 1228.8 nM, KEAP1 150 nM; signal against NRF2-only control
[17] = molecular target: KEAP1 (wild-type full-length), His-tagged (human) (UniProt Q14145); assay: AlphaScreen; FLAG-NRF2 Q75R 9.6 nM, His-KEAP1 150 nM; Repeat 1
[18] = molecular target: KEAP1 (wild-type full-length), His-tagged (human) (UniProt Q14145); assay: AlphaScreen; FLAG-NRF2 I86V 1228.8 nM, His-KEAP1 150 nM; Rep 1
[19] = molecular target: KEAP1 (wild-type full-length), His-tagged (human) (UniProt Q14145); assay: AlphaScreen; FLAG-NRF2 I86V 153.6 nM, His-KEAP1 150 nM; Rep 1
[20] = molecular target: KEAP1 (wild-type full-length), His-tagged (human) (UniProt Q14145); assay: AlphaScreen; FLAG-NRF2 I86V 76.8 nM, His-KEAP1 150 nM; Rep 2
[21] = molecular target: KEAP1 (wild-type full-length), His-tagged (human) (UniProt Q14145); assay: AlphaScreen; NRF2 I86V 9.6 nM, KEAP1 150 nM; signal against NRF2-only control
[22] = molecular target: KEAP1 (wild-type full-length), His-tagged (human) (UniProt Q14145); assay: AlphaScreen; FLAG-NRF2 I86V 19.2 nM, His-KEAP1 150 nM; Rep 1
[23] = molecular target: KEAP1 (wild-type full-length), His-tagged (human) (UniProt Q14145); assay: AlphaScreen; FLAG-NRF2 I86V 307.2 nM, His-KEAP1 150 nM; Rep 2
[24] = molecular target: KEAP1 (wild-type full-length), His-tagged (human) (UniProt Q14145); assay: AlphaScreen; 76.8 nM FLAG-NRF2, 150 nM His-KEAP1; signal against NRF2 only
[25] = molecular target: KEAP1 (wild-type full-length), His-tagged (human) (UniProt Q14145); assay: AlphaScreen; 9.6 nM FLAG-NRF2, 150 nM His-KEAP1; Rep 2
[26] = molecular target: KEAP1 (wild-type full-length), His-tagged (human) (UniProt Q14145); assay: AlphaScreen; 307.2 nM FLAG-NRF2, 150 nM His-KEAP1; signal against NRF2 only
[27] = molecular target: KEAP1 (wild-type full-length), His-tagged (human) (UniProt Q14145); assay: AlphaScreen; 9.6 nM FLAG-NRF2, 150 nM His-KEAP1; Repeat 2 (same value as in Table 27)

Sequence of KEAP1 (wild-type full-length), His-tagged (human) (Q14145 2-624 limits assumed): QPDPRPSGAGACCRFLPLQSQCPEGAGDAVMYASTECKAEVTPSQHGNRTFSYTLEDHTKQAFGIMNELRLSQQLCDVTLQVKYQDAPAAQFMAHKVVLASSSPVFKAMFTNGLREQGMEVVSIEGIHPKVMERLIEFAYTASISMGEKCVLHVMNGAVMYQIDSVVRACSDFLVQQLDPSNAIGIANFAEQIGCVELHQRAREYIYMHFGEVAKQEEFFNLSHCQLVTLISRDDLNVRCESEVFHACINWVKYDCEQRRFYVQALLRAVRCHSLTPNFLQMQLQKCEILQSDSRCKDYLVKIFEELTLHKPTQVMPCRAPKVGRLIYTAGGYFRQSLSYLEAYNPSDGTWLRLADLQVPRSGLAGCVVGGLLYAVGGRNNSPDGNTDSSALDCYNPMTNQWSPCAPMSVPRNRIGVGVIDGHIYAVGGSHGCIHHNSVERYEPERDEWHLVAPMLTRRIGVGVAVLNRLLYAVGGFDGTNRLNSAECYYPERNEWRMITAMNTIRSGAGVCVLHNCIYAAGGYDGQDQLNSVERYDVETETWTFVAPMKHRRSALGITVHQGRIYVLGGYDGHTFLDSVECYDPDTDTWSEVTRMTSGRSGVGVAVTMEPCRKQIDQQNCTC

B3: NRF2 isoform 1 (I86V full-length), FLAG-tagged (protein)
chain: MMDLELPPPGLPSQQDMDLIDILWRQDIDLGVSREVFDFSQRRKEYELEKQKKLEKERQEQLQKEQEKAFFAQLQLDEETGEFLPVQPAQHIQSETSGSANYSQVAHIPKSDALYFDDCMQLLAQTFPFVDDNEVSSATFQSLVPDIPGHIESPVFIATNQAQSPETSVAQVAPVDLDGMQQDIEQVWEELLSIPELQCLNIENDKLVETTMVPSPEAKLTEVDNYHFYSSIPSMEKEVGNCSPHFLNAFEDSFSSILSTEDPNQLTVNSLNSDATVNTDFGDEFYSAFIAEPSISNSMPSPATLSHSLSELLNGPIDVSDLSLCKAFNQNHPESTAEFNDSDSGISLNTSPSVASPEHSVESSSYGDTLLGLSDSEVEELDSAPGSVKQNGPKTPVHSSGDMVQPLSPSQGQSTHVHDAQCENTPEKELPVSPGHRKTPFTKDKHSSRLEAHLTRDELRAKALHIPFPVEKIINLPVVDFNEMMSKEQFNEAQLALIRDIRRRGKNKVAAQNCRKRKLENIVELEQDLDHLKDEKEKLLKEKGENDKSLHLLKKQLSTLYLEVFSMLRDEDGKPYSPSEYSLQQTRDGNVFLVPKSKKPDVKKN
A-counts (NRF2 plus KEAP1) [18]: 1750 A-counts | A-counts (NRF2 plus KEAP1) [19]: 2380 A-counts | A-counts (NRF2 plus KEAP1) [20]: 2800 A-counts | S/N [21]: 3.6 | A-counts (NRF2 plus KEAP1) [22]: 3120 A-counts | A-counts (NRF2 plus KEAP1) [23]: 2120 A-counts

B4: NRF2 isoform 1 (I28V full-length), FLAG-tagged (protein)
chain: MMDLELPPPGLPSQQDMDLIDILWRQDVDLGVSREVFDFSQRRKEYELEKQKKLEKERQEQLQKEQEKAFFAQLQLDEETGEFLPIQPAQHIQSETSGSANYSQVAHIPKSDALYFDDCMQLLAQTFPFVDDNEVSSATFQSLVPDIPGHIESPVFIATNQAQSPETSVAQVAPVDLDGMQQDIEQVWEELLSIPELQCLNIENDKLVETTMVPSPEAKLTEVDNYHFYSSIPSMEKEVGNCSPHFLNAFEDSFSSILSTEDPNQLTVNSLNSDATVNTDFGDEFYSAFIAEPSISNSMPSPATLSHSLSELLNGPIDVSDLSLCKAFNQNHPESTAEFNDSDSGISLNTSPSVASPEHSVESSSYGDTLLGLSDSEVEELDSAPGSVKQNGPKTPVHSSGDMVQPLSPSQGQSTHVHDAQCENTPEKELPVSPGHRKTPFTKDKHSSRLEAHLTRDELRAKALHIPFPVEKIINLPVVDFNEMMSKEQFNEAQLALIRDIRRRGKNKVAAQNCRKRKLENIVELEQDLDHLKDEKEKLLKEKGENDKSLHLLKKQLSTLYLEVFSMLRDEDGKPYSPSEYSLQQTRDGNVFLVPKSKKPDVKKN
S/N [24]: 2.2 | A-counts [25]: 1560 A-counts | S/N [26]: 1.2 | A-counts [27]: 1560 A-counts

Continued, values first:

A-counts (NRF2 plus KEAP1) [1]: 1420 A-counts | S/N [2]: 2 | A-counts (NRF2 plus KEAP1) [3]: 3270 A-counts | A-counts (NRF2 plus KEAP1) [4]: 1480 A-counts | S/N [5]: 1.7 | A-counts [6]: 2660 A-counts | A-counts (NRF2 plus KEAP1) [7]: 429 A-counts | A-counts [8]: 2720 A-counts | A-counts (NRF2 plus KEAP1) [9]: 725 A-counts | S/N [10]: 2.8 | S/N [11]: 1 | A-counts [12]: 2640 A-counts
B1: NRF2 isoform 1 (wild-type full-length), FLAG-tagged (protein)
chain: MMDLELPPPGLPSQQDMDLIDILWRQDIDLGVSREVFDFSQRRKEYELEKQKKLEKERQEQLQKEQEKAFFAQLQLDEETGEFLPIQPAQHIQSETSGSANYSQVAHIPKSDALYFDDCMQLLAQTFPFVDDNEVSSATFQSLVPDIPGHIESPVFIATNQAQSPETSVAQVAPVDLDGMQQDIEQVWEELLSIPELQCLNIENDKLVETTMVPSPEAKLTEVDNYHFYSSIPSMEKEVGNCSPHFLNAFEDSFSSILSTEDPNQLTVNSLNSDATVNTDFGDEFYSAFIAEPSISNSMPSPATLSHSLSELLNGPIDVSDLSLCKAFNQNHPESTAEFNDSDSGISLNTSPSVASPEHSVESSSYGDTLLGLSDSEVEELDSAPGSVKQNGPKTPVHSSGDMVQPLSPSQGQSTHVHDAQCENTPEKELPVSPGHRKTPFTKDKHSSRLEAHLTRDELRAKALHIPFPVEKIINLPVVDFNEMMSKEQFNEAQLALIRDIRRRGKNKVAAQNCRKRKLENIVELEQDLDHLKDEKEKLLKEKGENDKSLHLLKKQLSTLYLEVFSMLRDEDGKPYSPSEYSLQQTRDGNVFLVPKSKKPDVKKN

A-counts (NRF2 plus KEAP1) [13]: 1180 A-counts | S/N [14]: 2.5 | A-counts (NRF2 plus KEAP1) [15]: 1280 A-counts | S/N [16]: 0.9 | A-counts (NRF2 plus KEAP1) [17]: 1180 A-counts
B2: NRF2 isoform 1 (Q75R full-length), FLAG-tagged (protein)
chain: MMDLELPPPGLPSQQDMDLIDILWRQDIDLGVSREVFDFSQRRKEYELEKQKKLEKERQEQLQKEQEKAFFAQLRLDEETGEFLPIQPAQHIQSETSGSANYSQVAHIPKSDALYFDDCMQLLAQTFPFVDDNEVSSATFQSLVPDIPGHIESPVFIATNQAQSPETSVAQVAPVDLDGMQQDIEQVWEELLSIPELQCLNIENDKLVETTMVPSPEAKLTEVDNYHFYSSIPSMEKEVGNCSPHFLNAFEDSFSSILSTEDPNQLTVNSLNSDATVNTDFGDEFYSAFIAEPSISNSMPSPATLSHSLSELLNGPIDVSDLSLCKAFNQNHPESTAEFNDSDSGISLNTSPSVASPEHSVESSSYGDTLLGLSDSEVEELDSAPGSVKQNGPKTPVHSSGDMVQPLSPSQGQSTHVHDAQCENTPEKELPVSPGHRKTPFTKDKHSSRLEAHLTRDELRAKALHIPFPVEKIINLPVVDFNEMMSKEQFNEAQLALIRDIRRRGKNKVAAQNCRKRKLENIVELEQDLDHLKDEKEKLLKEKGENDKSLHLLKKQLSTLYLEVFSMLRDEDGKPYSPSEYSLQQTRDGNVFLVPKSKKPDVKKN
